Data reported in PMC6208296, “Redox regulation of pyruvate kinase M2 by cysteine oxidation and S-nitrosation” (Biochemical Journal, 2018).

Legend:
[1] = target: the molecule itself; assay: crystal structure; hanging drop vapour diffusion, 10 mg/ml protein with 5 mM of each ligand, PEG 3350, sodium cacodylate pH 6, 50 mM MgCl2, 100 mM KCl; 18°C (C424A, with F-1,6-BP, oxalate and ATP) or 4°C (C358S)
[2] = target: the molecule itself; assay: cell-based or functional assay
[3] = target: the molecule itself; assay: SEC; analytical gel filtration, Superdex 200 PC 3.2/30 in PBS-CM, room temperature; 0.1 mg/ml incubated 12 h (equilibrium) without or with 1 mM DTT or 20 μM H2O2; tetramer to monomers, peak areas on a bimodal distribution

B1: M2PYK C424A (enzyme)
chain: not shown
notes: pyruvate kinase, M2 isoform (M2PYK), human, point mutant made on pET28a-M2PYK; Made by QuikChange on pET28a-M2PYK; no step that removes the His tag is described; source: E. coli BL21, purified (cobalt IMAC, Superdex 200 gel filtration)
[1]
  binding result: binds

B2: M2PYK C326S (enzyme)
chain: not shown
[2]
  enzymatic activity, LDH-coupled assay, without F-1,6-BP, relative to M2PYK WT: ~20 % of WT activity

B3: M2PYK C358S (enzyme)
chain: not shown
notes: pyruvate kinase, M2 isoform (M2PYK), human, point mutant made on pET28a-M2PYK; Made by QuikChange on pET28a-M2PYK; no step that removes the His tag is described; also called Cys358Ser; MPYK C358S; source: E. coli BL21, purified (cobalt IMAC, Superdex 200 gel filtration)
[3]
  stoichiometry N: 4
